Molecular target: ADDomer-SpyTag (ADD-ST) particle (human adenovirus type 3)
Experiment: covalent adduct on SDS-PAGE

SpyCatcher (SC) (designed binder)
stoichiometry N (copies per particle): 60

— publication doi:10.1101/2021.09.13.460076
